{
  "source": "paper PMC2891831",
  "about": "“Insight into the Mechanisms of Adenovirus Capsid Disassembly from Studies of Defensin Neutralization” (PLoS Pathogens, 2010)",
  "key": {"HAdV-7p": {"system": "HAdV-7p", "test": "Virus-defensin binding assay, HAdV-7p", "design": "species or system human adenovirus", "conditions": "20 µM HD5, mean of two or three independent experiments ± SD", "excerpt": "(§1) Figure 2 HD5 binding to HAdV. A) HD5 binding to a representative defensin-sensitive serotype (HAdV-5) was quantified by an equilibrium-binding assay. Data are the mean of the number of HD5 molecules bound per virion at the indicated HD5 concentrations from at least three independent experiments ± SD. Binding curves were fitted using Prism software. B) Binding of HD5 to additional defensin-sensitive (HAdV-7p) and resistant (HAdV-19c, -25p, -51p) serotypes expressed as a percent of HD5 bound to HAdV-5. Data are the mean of two or three independent experiments ± SD.\n(§2) We assessed HD5 binding to additional serotypes after incubation with 20 µM HD5 (Figure 2B). The sensitive serotype HAdV-7p bound 69.3±15.9% of the amount of HD5 bound to HAdV-5 in parallel samples; whereas, the corresponding values for the resistant serotypes HAdV-19c, -25p, and -51p were 32.5±7.5%, 3.3±5.8%, and 24.6±12.0%, respectively.\n(§3) To measure HD5 binding to HAdV-5 and -51, HD5 was serially diluted in PBS and mixed with 5 µg purified virus. […] The other half of each sample was used to make a standard curve for quantification. […] Virus bands were quantified using ImageQuant NT software (GE Healthcare). […] The amount of HD5 in the centrifuged samples was then quantified against the standard curve using Prism software. […]"}, "HAdV-25p": {"system": "HAdV-25p", "test": "Virus-defensin binding assay, HAdV-25p", "design": "species or system human adenovirus", "excerpt": "as §1, §2, §3"}, "Ad5.eGFP": {"system": "Ad5.eGFP", "test": "Ad5.eGFP infection, eGFP-positive cells by flow cytometry", "assay_type": "cell-based, human adenovirus", "conditions": "15 µM defensin, percent eGFP positive cells vs. no defensin, at least three independent experiments", "excerpt": "To gain further insight into the defensin-HAdV interaction, we assessed the requirement for two conserved structural elements on the anti-AdV activity of HD5. All defensins have three disulfide bonds (Figure 3A). […] The antibacterial properties of defensins, which are dependent upon protein-lipid interactions, are not uniformly conformation dependent [27]–[29]. […] In contrast, defensin-related chemokine activity, which relies on protein-protein interactions, is dependent on defensin conformation. We hypothesized that the defensin-capsid interaction for sensitive serotypes would likely be dependent upon defensin conformation, as this would be more typical for protein-protein interactions. […]\nFigure 3 HD5 antiviral activity is structure dependent. […] C) Binding of Alexa Fluor 488-labeled HAdV-5 to cells was assessed after incubation with or without 20 µM HD5 or HD5-Abu and in competition with 100 nM 5FK or 16 FK. Data are the mean fold increase in geometric mean fluorescence compared to cells alone and are of at least 10,000 cells from each of three independent experiments ± SD.\nTo test the activity of HD5 derivates, Ad5.eGFP was incubated with 15 µM of HD5, HD5-Abu, or HD5-E14Q. Infectivity was assessed by enumerating eGFP-positive cells by flow cytometry as described."}, "PB/GYAR": {"system": "PB/GYAR", "test": "Infection assay, PB/GYAR virus chimera", "assay_type": "cell-based, human adenovirus", "procedure": "(§4) Figure 6 Neutralization determinants are located in fiber and penton base. A) Schematic of chimeric viruses. Capsid proteins are depicted in the order in which they are encoded in the virus genome for HAdV-5 (white) and HAdV-19c (grey). The variable residues in fiber (GYAR and DTET) are indicated for each construct. B) Each of the chimeric viruses was incubated with 5 µM (grey) or 10 µM (black) HD5 and assessed for infectivity on A549 cells. Data are the mean of the percent infectivity compared to control cells infected with each virus in the absence of defensin for at least three independent experiments ± SD. The upper limit for quantification of this assay is 200%.\n(§5) We then combined the GYAR substitution with the PB substitution in a single construct (PB/GYAR).\n(§6) Prior to use in this assay, each virus stock was titrated on A549 cells. A virus concentration was chosen to produce 50–70% maximal signal in the absence of defensin as described below. […] In parallel, wells were infected with two-fold serial dilutions of each virus to establish a standard curve for quantification with an upper limit of 200%. […] Total well fluorescence above background was quantified with ImageJ software. For each virus, samples were quantified by nonlinear regression against the standard curve using Prism software (GraphPad Software, Inc., La Jolla, CA)."}, "HAdV-19c": {"system": "HAdV-19c", "test": "Infection assay, HAdV-19c", "assay_type": "cell-based, human adenovirus", "procedure": "as §4, §5, §6"}},
  "data": [
    {"molecule": "HD5: human alpha-defensin; synthetic, obtained from Peptides International; three disulfide bonds (PDB 1ZMP) (peptide, UniProt Q01523 20-94, looked up, Defensin-5) Defensin alpha 5: ESLQERADEATTQKQSGEDNQDLAISFAGNGLSALRTSGSQARATCYCRTGRCATRESLSGVCEISGRLYRLCCR", "values": [
      {"measurement": "HD5 bound, percent of HD5 bound to HAdV-5", "setting": "HAdV-7p", "value": "69.3±15.9", "unit": "%"},
      {"measurement": "HD5 bound, percent of HD5 bound to HAdV-5", "setting": "HAdV-25p; 20 µM HD5, mean of two or three independent experiments ± SD", "value": "3.3±5.8", "unit": "%"},
      {"measurement": "level of HD5 binding (in words)", "setting": "HAdV-25p; HAdV-25p", "value": "only a low level of binding"},
      {"measurement": "antiviral activity against Ad5.eGFP", "setting": "Ad5.eGFP", "value": "only correctly folded HD5 has antiviral activity"},
      {"measurement": "sensitivity to HD5 neutralization", "setting": "PB/GYAR; 5 µM and 10 µM HD5, A549 cells, at least three independent experiments", "value": "completely resistant to neutralization"},
      {"measurement": "defensin-resistance at higher HD5 concentration", "setting": "PB/GYAR; 20 µM HD5, data not shown", "value": "confirmed the defensin-resistance"},
      {"measurement": "sensitivity to HD5 neutralization", "setting": "HAdV-19c; 5 µM and 10 µM HD5, A549 cells", "value": "completely resistant to neutralization"},
      {"measurement": "defensin-resistance at higher HD5 concentration", "setting": "HAdV-19c; 20 µM HD5, data not shown", "value": "confirmed the defensin-resistance"}
    ]}
  ]
}
